# Source: PMC4169312 (The FEBS journal, 2014)
# Key:
# Experiment in all cases: RP-HPLC product quantification, Michaelis-Menten fit
# [1] = molecular target: sMAT (methionine adenosyltransferase from Sulfolobus solfataricus) (Saccharolobus solfataricus, UniProt Q980S9); type: biochemical; conditions: 65 °C, pH 8.0, 2.5 mM ATP, 5 mM MgCl2, 40 mM KCl
# [2] = substrate: CSCC[C@H](N)C(=O)O; type: biochemical, Saccharolobus solfataricus; conditions: 65 °C, pH 8.0, 2.5 mM ATP, 5 mM MgCl2, 40 mM KCl
# [3] = substrate: Nc1ncnc2c1ncn2[C@@H]1O[C@H](COP(=O)(O)OP(=O)(O)OP(=O)(O)O)[C@@H](O)[C@H]1O; type: biochemical, Saccharolobus solfataricus; conditions: 65 °C, pH 8.0, 2.5 mM L-methionine, 5 mM MgCl2, 40 mM KCl
Molecule,Km [1],Km [2],kcat [2],kcat/Km [2],Km [3],kcat [3],kcat/Km [3]
"CCSCC[C@H](N)C(=O)O [L-ethionine, (2S)-2-amino-4-(ethylsulfanyl)butanoic acid]",7 ± 1.6 µM,–,–,–,–,–,–
sMAT (methionine adenosyltransferase from Sulfolobus solfataricus) (Saccharolobus solfataricus P2) (protein) MRNINVQLNPLSDIEKLQVELVERKGLGHPDYIADAVAEEASRKLSLYYLKKYGVILHHNLDKTLVVGGQATPRFKGGDIIQPIYIIVAGRATTEVKTESGIDQIPVGTIIIESVKEWIRNNFRYLDAERHVIVDYKIGKGSSDLVGIFEASKRVPLSNDTSFGVGFAPLTKLEKLVYETERHLNSKQFKAKLPEVGEDIKVMGLRRGNEVDLTIAMATISELIEDVNHYINVKEQVRNQILDLASKIAPGYNVRVYVNTGDKIDKNILYLTVTGTSAEHGDDGMTGRGNRGVGLITPMRPMSLEATAGKNPVNHVGKLYNVLANLIANKIAQEVKDVKFSQVQVLGQIGRPIDDPLIANVDVITYDGKLTDETKNEISGIVDEMLSSFNKLTELILEGKATLF,–,2.8 ± 0.7 µM,0.0487 ± 0.00117 s⁻¹,17400 ± 1670 M⁻¹ s⁻¹,14.5 ± 2.5 µM,0.0468 ± 0.00133 s⁻¹,3230 ± 533 M⁻¹ s⁻¹
